Here are results for four proteins from paper PMC10939073, “The major inducible small heat shock protein HSP20-3 in the tardigrade Ramazzottius varieornatus forms filament-like structures and is an active chaperone” (Cell Stress & Chaperones, 2023).

The series deals with the molecule itself. The series is described as follows: SEC; Superose 6 10/300 column; eluted in 0.5 M NaH2PO4, 0.5 M Na2HPO4, 150 mM NaCl, 5 mM EDTA pH 8.0; calibrated with protein standards (670 kDa to 137 Da); self-association, oligomers.

B1: human CRYAB (HSPB5) (natural protein, UniProt P02511 1-175, looked up)
chain: MDIAIHHPWIRRPFFPFHSPSRLFDQFFGEHLLESDLFPTSTSLSPFYLRPPSFLRAPSWFDTGLSEMRLEKDRFSVNLDVKHFSPEELKVKVLGDVIEVHGKHEERQDEHGFISREFHRKYRIPADVDPLTITSSLSSDGVLTVNGPRKQVSGPERTIPITREEKPAVTAAPKK
notes: human alpha-B crystallin CRYAB (HSPB5), recombinant; also called recombinant human CRYAB; source: E. coli, purified (ion exchange and size exclusion chromatography; as described previously)
For B1, the binding result is on record as “binds”.

B2: HSP20-3NCT, C-terminally truncated HSP20-3 (stop codon immediately after G191, repeated QNTN-motif removed) (domain or fragment, Ramazzottius varieornatus, UniProt A0A1D1UZ79 1-191, looked up)
chain: MSMQRYDDYNDYGNRQMRPHRGNYEMEPFFGGNLFGGIDHVMRSMTRDLARMEKHIFGSSDTPNIGSLINHNMAMVPNFIERDGQQLAQFQLDVRGFKPEDITIRTSENVMTVTARHEDKSDDHHAIREFRRMVTIPPGMQMEGMKSRLTPNGVLSIEAPFTPQANRQGDFYEIPIQHGSSSNRNSIQNSG
notes: untagged; same forward primer as HSP20-3; pET23b construct; also called CTD-truncated HSP20–3; source: E. coli BL21 (pLysS), purified (Q-Sepharose ion exchange, Superose 6 size exclusion)
Regarding B2, the binding result is “binds”.

B3: Ramazzottius varieornatus small heat shock protein HSP20-3 (natural protein, UniProt A0A1D1UZ79 1-218, looked up)
chain: MSMQRYDDYNDYGNRQMRPHRGNYEMEPFFGGNLFGGIDHVMRSMTRDLARMEKHIFGSSDTPNIGSLINHNMAMVPNFIERDGQQLAQFQLDVRGFKPEDITIRTSENVMTVTARHEDKSDDHHAIREFRRMVTIPPGMQMEGMKSRLTPNGVLSIEAPFTPQANRQGDFYEIPIQHGSSSNRNSIQNSGQNSSQNTNQNTNQNTNQNTNQNTNQNK
notes: a stop codon precedes the vector's C-terminal hexa-histidine tag, so the protein is untagged; pET23b construct; also called full length HSP20–3; RvY_03967; source: E. coli BL21 (pLysS), purified (Q-Sepharose ion exchange, Superose 6 size exclusion)
Turning to B3, the binding result is on record as “binds”.

B4: Ramazzottius varieornatus small heat shock protein HSP20-6 (natural protein, UniProt A0A1D1VFU2 1-195, looked up)
chain: MSRNLARLLPQITNMLDTPFRRAVTPFNRYRWPASSLGFFDREFERMSNMMDRMHNDLWHSSSLLENPQGSQRGKMNQDLFNIVEENGKKKMRIIFEAERCKPEDIEIKAKGNHLEIKARTEEKGEHFQSIQEYSQYLTLPEGVKAEELTCQFEGGMVTLEAPYTPPAIEAPKDIPVQKEPAEPPVKHNIPIKHE
notes: a stop codon precedes the vector's C-terminal hexa-histidine tag, so the protein is untagged; pET23b construct; also called RvY_08665; source: E. coli BL21 (pLysS), purified (Q-Sepharose ion exchange, Superose 6 size exclusion)
Regarding B4, the binding result is listed as “binds”.
